Assay results taken from patent US20210238262A1.

Biological target: ZIKV PR (Puerto Rican strain, PRVABC59) virus (Zika virus strain PRVABC59)
Experiment: cell-based or functional assay

## Z004 (antibody)
  micro-neutralization (MN50) in Vero cells, IC50: 1.4 ng/mL
